The format of data set [1] is in vitro ADME, rabbit. The note with it: not told. As for the experimental part: Dutch-belted rabbits (Pine Acres Rabbitry, Vermont, Mass.), each weighing 2-3 kg, were anesthetized with intramuscular 40 mg/kg ketamine (Abbott, N. Chicago, Ill.) and 10 mg/kg xylazine (Bayer, Shawnee Mission, Kans.). Scleral thickness was measured using a RK-5000 ultrasound pachymeter (KMI Surgical Products, West Chester, Pa.). The eyes were enucleated immediately […] sacrifice and immersed in Unisol (Alcon, Ft. Worth, Tex.) for 10 minutes or less. The adherent muscles were excised and episcleral tissue was removed with a sterile gauze sponge. Areas free of nerve and vessel emissaries were used to obtain 7×12 mm slices of sclera under microscopic caliper guidance. Each piece of sclera was used on the day of isolation.
A 5×10 mm window, 2 mm from the bottom, was created on one face of a spectrophotometry polystyrene cuvette (Sigma, St. Louis, Mo.) using a Bridgeport vertical milling machine (Bridgeport, Bridgeport, Conn.), and a piece of sclera was blotted dry and placed over this window without stretching so as not to induce asymmetric stresses. A small amount of cyanoacrylate tissue adhesive (Ellman International, Hewlett, N.Y.) was applied to the entire boundary of the tissue rim to seal its cut surface to the cuvette and prevent leakage around the sclera, and a second identical cuvette was aligned with the first cuvette and glued in place over the tissue. After the glue polymerized, within 3 to 4 minutes, the cuvette facing the “orbital” surface of the sclera was filled with Unisol. The apparatus was discarded if leakage into the “uveal” chamber was observed. Unisol was replaced with diffusion medium (see below) and the apparatus was incubated at 37° C. in 5% CO2 atmosphere for 1 hour to restore normal hydration and temperature.
Hanks' balanced salt solution without phenol red, containing 1% glutamine-penicillin and streptomycin, tetracycline (48 μg/ml), and aprotinin (1.5 μg/ml) (all from Sigma), was used as the diffusion medium. Tetracycline and aprotinin were excluded from the medium for certain experiments with FITC-BSA to evaluate the effect of these proteolysis inhibitors on scleral permeability. The pH of all solutions ranged from 7.41 to 7.45.
Fluorescein isothiocyanate (FITC) conjugated dextrans ranging in molecular weight from 4 kDa to 150 kDa, FITC-bovine serum albumin (BSA), FITC-rabbit IgG (all from Sigma), rhodamine-conjugated dextran of molecular weight 70 kDa (Molecular Probes, Eugene, Oreg.), and sodium fluorescein (Akorn, Abita Springs, La.) were studied. At least 5 experiments were performed on each compound. […] Samples were protected from light at all times before fluorescence measurements. […]

The conditions of data set [2]: Stokes-Einstein radius; cited from earlier work.
The nature of data set [3]: Protein precipitation with trichloroacetic acid to test FITC linkage. Set-up: species or system rabbit. The note with it: supernatant fluorescence.

Consider 2 compounds from patent US20050208103A1, “Targeted transscleral controlled release drug delivery to the retina and choroid” (priority 1999, published 2005).

As for `O=C([O-])c1ccccc1-c1c2ccc(=O)cc-2oc2cc([O-])ccc12.[Na+].[Na+]` [Sodium fluorescein, sodium fluorescein], in data set [1], the Permeability coefficient is listed as 76.3±24.1 ×10^−6 cm/s and the “Permeability coefficient (mean ± sd)” value was 84.5±16.1 ×10^−6 cm/s. For the same compound, the Molecular radius in data set [2] is recorded as 0.5 nm.

Consider “FITC-BSA: Fluorescein isothiocyanate conjugated bovine serum albumin (Sigma)”, for which, in data set [1], the Permeability coefficient was 5.21±1.85 ×10^−6 cm/s and the “Permeability coefficient (mean ± sd)” value is 5.49±2.12 ×10^−6 cm/s. Further, the “dissociation of the FITC conjugate after diffusion through sclera” value in data set [3] is on record as “no significant dissociation”. Also, the Molecular radius in data set [2] is 3.62 nm.
